B1: human anti-FHbp Fab 7B (Fab, V domains shown)
VH: QVQLVQSGPEVKKPGASVKISCKTSGYTFTTNALYWVRQAPGQRPEWVGWLNTGNGNSKTSQNFQGRVTITRDTSASSTYMELSSLTFEDTAVYFCARRPSGDYNTYYFDFWGQGTLVTVSS
VL: EIVMTQSPGTLSLSPGGRGTLSCRASESVSSSYISWYQHKSGQAPRLLIYGASSRATGIPDRFSGSGSGTDFTLTISRLEPEDFAVYYRQYFSGSKGLTFGPGTKVDIK
B2: human anti-FHbp Fab 2A (Fab, V domains shown)
VH: QVQLQQSGSGLVKPSQTLSLTCTVSGGSINIGDRYWSWLRQSPGKGLEWIGYIDYSGDTYYNSSLKSRAAISIDTSNKQFSLKLSSVTAADTAVYYCARGSSDFSSGYFFDYWGQGTLVTVSS
VL: ETTLTQSPATLSVSPGERAILSCRDSQSVSSNLAWYQQKPGQAPRLLIFGASTRATGIPARFSGSGSGTEFTLTISSLQSEDFAVYYCQQYNNWLSFGQGTKLEIK
B3: human anti-FHbp Fab 8A (Fab, V domains shown)
VH: QVQLVESGGGLVQPGGSLRLSCVTSGFTFRSYAMTWVRQAPGKGLEWVSSISHSGGSTKYADSVKGRLTISRDDSMDTLYLQMNSLRAEDTAIYYCAKDQISYPAASPLDYWGRGTLVTVSS
VL: EIVLTQSPGTLSLSPGERATLSCRASQSFSSFSLAWYQQKPGQAPRLLIYAPSNRATGIADRFSGSGSGTDFTLTISRLEPEDFAVYYCQQYGSSPITFGQGTRLEIK
B4: human anti-FHbp Fab 9B (Fab, V domains shown)
VH: EVQLVQSGAELKKPGESLKISCKASGYTFTNYWVVWVRQMPGEGLEWMGSIHPRDSDARYSLSFEGRVTFSVDKSTTTAYLQWSSLKVSDSAIYYCARLSQVSGWSPWVGPWGQGTLVTVSS
VL: DIVMTQSPSSLSASVGDRVTITCRASQSISVSLNWYQQKPGKAPKVLIYAASRLQSGIPSRFSGSGSGSHFTLTISSLQPEDFATYYCQETYSDLMYTFGQGTKVEIK
B5: human anti-FHbp Fab 10C (Fab, V domains shown)
VH: QVQLVESGGGVVQPGRSLRLSCPASGFTFSRYALHWVRQAPGKGLEWVAVISFDGSFKYYADSVKGRFSISRDNFKNTLYLQMNSLRAEDTAVYYCAKDDTLHASGWGGFDYWGQGALVTVSS
VL: EIVLTQSPATLSLSPGERATLSCRASQSVTSYLTWYQHKPGQAPRLLIYHTSYRATGIPARFSGSGSGTDFTLSITSLEPEDFAVYYCQQRSNWPFTFGPGTKVDIK
B6: human anti-FHbp Fab 6B (Fab, V domains shown)
VH: EVQLVESGGGLVQPGGSLRLSCAASGFTFSSYAMSWVRQAPGKGLEWVSAISGSGGSSHYTDSVKGRFTISRDNSKNTLWLQMNSLRAEDTAIYYCAKTSGSYYYHYEIDVWGQGTTVTVSS
VL: EIVLTQSPGTLSLSPGERATLSCRASQSVSSSYLAWYQQKPGQAPRLLIYGTSNRATGIPDRFSGSGSGTDFTLTVSRLEPEDFAVYYCQQYGSSPCSFGQGTKLELK
B7: human anti-FHbp Fab 3C (Fab, V domains shown)
VH: QVQLQESGPGLVKPSETLSLTCTVSGYSITRGYYWGWIRQPPGKGLEWIGGIYHSGTTYQNPSLRSRVTFSVDTSKNQFSLKLRSVTAADTAVYYCARDNYSSNLDYWGQGTMVTVSS
VL: EIVLTQSPGTLSLSPGERATLSCRASQSVSSSYLAWYQQKAGQAPRLLIYGASSRATGIPERFSGSGSGTDFTLTISRLEPEDFAIYYCQQYGSSRFIFGPGTKVDIK
B8: human anti-FHbp Fab 4B (Fab, V domains shown)
VH: EVQLVESGGGLAQPGGSLRLSCVASGSTFGSYAIYWVRQAPGKGLEWVSGISGSGTKIDYADSVKGRFTISRDISKNTLYLQMNSLRAEDTAVYYCAKLGFFDYWGQGTQVTVSS
VL: EIVLTQSPDTLSLSPGERATLSCRASQSVSTYLFWYQKKPGQAPRLLIFDASNRATGIPVRFSGSGSGTDFTLTISSLEPEDFAVYYCQQRSNWPQTFGGGTKVEIK
B9: human anti-FHbp Fab 5B (Fab, V domains shown)
VH: EVQLLESGGGLVQPGGSLRLSCAASGYTFGSYAMTWVRQGPGKGLEWVSTILGSGADTYYADSVKGRFTISRDNSRNTLFMQLSSLRAEDTAVYYCAKLGYYDTWGQGTLVTVSS
VL: EIVLTQSPATLSLSPGERATLSCRASQSIASYLYWYQQKPGQAPRLLIFDASNRATGTPARFSGSGSGTDFTLTISSLEPEDFAVYYCQQRNNWPRALTFGGGTKVEIK
B10: control chimeric human-mouse anti-FHbp Fab 502 (Fab, V domains shown)
VH: EVQLQESGPGLAKPSQTLSLTCSVTGYSITSDFWNWIRKFPGNKLEYMGYISYSGSTDYNPSLKSRISITRDTSKNQYYLQLNSVTAEDTATYYCARYFGSSYAMDHWGQGTSVTVSS
VL: DIQMTQSPASLSASVGETVTITCRASGNIHNYLAWYQQKQGKSPQLLVYTAKTLAEGVPSRFSGSGSGTQFSLKINSLQPEDFGSYYCQHFWSTPWTFGGGTKLEIK

The source of these data is article PMC4479705 (mBio, 2015).

recombinant factor H binding protein (FHbp) ID 1, sequence (Q9JXV4 20-274): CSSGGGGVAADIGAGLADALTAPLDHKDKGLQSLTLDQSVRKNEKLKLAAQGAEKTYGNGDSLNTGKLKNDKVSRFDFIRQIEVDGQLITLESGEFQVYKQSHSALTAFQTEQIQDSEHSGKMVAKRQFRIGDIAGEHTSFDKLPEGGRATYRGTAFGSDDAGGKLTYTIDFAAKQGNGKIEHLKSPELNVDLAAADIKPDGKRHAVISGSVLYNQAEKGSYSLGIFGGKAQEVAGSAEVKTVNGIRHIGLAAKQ

For the first assay, the target named is recombinant factor H binding protein (FHbp) ID 1 (Neisseria meningitidis) (UniProt Q9JXV4). Kind of assay: SPR.
recombinant factor H binding protein (FHbp) ID 1 (Neisseria meningitidis), sequence (Q9JXV4 20-274): as above
B1: the Kd was determined as 22.9 nM.

The next assay has as its target recombinant factor H binding protein (FHbp) ID 1 (Neisseria meningitidis serogroup B …, UniProt Q9JXV4). Kind of assay: SPR.
Consider B2, for which the Kd came to 115 nM, the koff came to 0.061 s⁻¹ and the kon is 530000 M⁻¹ s⁻¹.

For B3, the Kd is 1.04 nM, the koff was 0.002 s⁻¹ and the kon turned out to be 2.3e+06 M⁻¹ s⁻¹.

As for B4, the Kd was 0.019 nM, the koff was 4e-05 s⁻¹ and the kon turned out to be 1.85e+06 M⁻¹ s⁻¹.

For the molecule B5, the Kd was 0.68 nM, the koff stood at 0.0005 s⁻¹ and the kon was 930000 M⁻¹ s⁻¹.

Take B6: the Kd amounted to 0.82 nM, the koff is 0.0004 s⁻¹ and the on-rate (kon) worked out at 500000 M⁻¹ s⁻¹.

For B7, the Kd was 130 nM, the koff is 0.0032 s⁻¹ and the kon turned out to be 30000 M⁻¹ s⁻¹.

B8: the Kd was 0.86 nM, the koff is 0.0006 s⁻¹ and the kon was found to be 720000 M⁻¹ s⁻¹.

Regarding B9, the Kd was found to be 10.6 nM, the koff was 0.0041 s⁻¹ and the on-rate constant (kon) was determined as 390000 M⁻¹ s⁻¹.

Take B10: the Kd was 4.8 nM, the koff stood at 0.0053 s⁻¹ and the kon is 1.09e+06 M⁻¹ s⁻¹.
